This note sets out measurements from article PMC12126530.

Test [1] addresses Full-length Hsc70-T204A (ATPase deficient mutant) (human) (UniProt P11142). As to the kind of experiment: NMR 15N-CPMG relaxation dispersion with exchange-induced shifts; 15N-labelled JDP (DNAJB6 JD-GF 200 μM, DNAJB6 JD 350 μM, DNAJB1 300 μM) with unlabelled Hsc70-T204A at a molar ratio of 0.1, ATP-regenerating system, 20 mM HEPES pH 7.0, 50 mM KCl, 2.5 mM MgCl2, 25 °C, 600, 800 and 950 MHz; fit to a 2-state model; kex = kon app + koff.

Test [2] shares this target. As to the kind of experiment: NMR 15N-CPMG relaxation dispersion and exchange-induced shifts; 15N-labelled JDP observed, unlabelled Hsc70-T204A added to a molar ratio of 0.1 (DNAJB6 JD-GF 200 uM, DNAJB6 JD 350 uM, DNAJB1 300 uM); 25 °C; 20 mM HEPES pH 7.0, 50 mM KCl, 2.5 mM MgCl2; ATP-regenerating system with 2.5 mM ATP; fit to a two-state binding model.

Chain of Full-length Hsc70-T204A (ATPase deficient mutant) (human) (P11142 whole entry T204A): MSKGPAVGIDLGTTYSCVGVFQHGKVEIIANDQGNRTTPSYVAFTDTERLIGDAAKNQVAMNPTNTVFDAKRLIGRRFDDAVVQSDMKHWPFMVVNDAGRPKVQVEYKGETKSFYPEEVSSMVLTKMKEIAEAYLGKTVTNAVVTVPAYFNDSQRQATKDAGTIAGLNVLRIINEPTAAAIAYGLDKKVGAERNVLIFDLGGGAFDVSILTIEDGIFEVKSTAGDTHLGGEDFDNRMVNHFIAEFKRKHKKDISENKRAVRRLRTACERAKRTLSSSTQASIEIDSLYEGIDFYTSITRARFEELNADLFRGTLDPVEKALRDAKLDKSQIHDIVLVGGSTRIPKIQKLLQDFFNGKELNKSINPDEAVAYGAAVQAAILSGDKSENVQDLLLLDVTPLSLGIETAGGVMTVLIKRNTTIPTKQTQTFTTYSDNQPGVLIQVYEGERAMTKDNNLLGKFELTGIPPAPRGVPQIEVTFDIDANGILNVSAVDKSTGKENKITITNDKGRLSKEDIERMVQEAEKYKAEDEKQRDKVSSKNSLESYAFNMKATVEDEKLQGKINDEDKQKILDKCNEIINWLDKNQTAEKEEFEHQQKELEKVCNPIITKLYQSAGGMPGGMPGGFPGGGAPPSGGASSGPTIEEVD

The term koff denotes a measure of how fast the partners let go of each other. With “DNAJB6 JD (from UniProt O75190 1-326) (domain or fragment)”, in test [1], the Kd was determined as 3 µM, the kex amounted to 3000 s⁻¹ and the off-rate constant (koff) was 2700 s⁻¹.

The kon is a measure of how fast the partners come together. “DNAJB6 JD-GF (from UniProt O75190 1-326) (domain or fragment)”: in test [1], the Kd was 380 µM, the kex is 600 s⁻¹ and the koff stood at 580 s⁻¹. Also, the association rate constant (kon) in test [2] was found to be 1.54e+06 M⁻¹ s⁻¹.
